Test results reported in the Human Domainome abundance scans (Beltran et al. 2025).

B1: GAS2-like protein 1, residues 209 to 276; numbered along this chain, Q99501 (parent)
chain: DELVREILGRCTCPDQFPMIKVSEGKYRVGDSSLLIFVRVLRSHVMVRVGGGWDTLEHYLDKHDPCRC

Variants of: B1
Experiment: abundance fitness (aPCA) (normalised: wild type 0, dead -1); higher = more abundant; growth selection in yeast, the domain comes from the species named
Settings: Homo sapiens

Abundance fitness: each site, then its substitutions
Y59: I -0.962; F 0.139; R -0.886; D -1.03; K -0.782; A -0.927; E -0.946; Q -0.55; M -0.767; V -0.568; L -0.749; T -0.862; G -0.904; H -1.03; S -0.583; P -0.954; N -1.02
D61: E 0.105; F -0.203; V -0.246; R -0.212; W -0.305; S -0.146; N -0.094; Y -0.068; I -0.3; Q -0.123; K -0.249; A -0.074; M -0.073; G -0.176; H -0.274; P -0.729; T -0.183; L -0.063
C68: D 0.046; F 0.015; H 0.058; E -0.024; G 0.176; A 0.177
D64: K -1.12; Y -0.936; P -0.824; A -1.03; R -0.659; T -0.869; S -1.02; N -0.86; F -0.419; Q -0.93; V -0.927; H -0.511; E -0.668; I -0.75; M -0.888; L -0.812; C -0.319; G -0.792
H58: M -0.514; P -0.933; R -0.116; L -0.673; W -0.752; V -0.688; Q -0.34; Y -0.676
C66: A -0.878; P -0.763; I -0.722; Y -0.594; K -0.746; T -0.751; E -0.693; F -0.928; Q -0.608; W -1.01; M -0.734; H -0.822; G -0.848; S -0.621; V -0.97; R -0.797; D -0.502; L -0.875
K62: V 0.092; A -0.069; W -0.512; R -0.065; T -0.048; C -0.25; S -0.214; F -0.27; L -0.004; G -0.337; H -0.298; E 0.054; M -0.038; Q 0.137; I -0.078; N -0.091; P -0.832; Y -0.242; D -0.234
L60: D -0.584; G -0.915; S -0.928; N -0.885; W -0.9; Q -0.708; K -0.838; P -0.872; R -0.889; T -0.994; M -0.572; I -0.531; Y -0.822; F -0.864; E -0.842
H63: M -0.145; P -0.455; C -0.377; W -0.233; A -0.434; Y -0.081; F -0.015; Q -0.555; V -0.017; E -0.11; G -0.719; K -0.077; L -0.18; R -0.162; T -0.322
P65: Q -0.771; N -0.498; M -0.946; H -0.605; G -0.837; A -0.591; C -0.819; V -0.904; K -0.734; R -0.625; W -0.857; D -0.757; E -0.688; Y -0.826; I -0.711; S -0.898
R67: A -0.763; Y -0.995; W -1.02; D -0.849; N -1.01; C -0.92; V -0.975; Q -0.882; L -0.706; E -0.847; P -0.902; H -0.931; G -0.945; S -0.789; K -0.616; M -0.899; I -0.638
